Assays:
[1] = test system: Hsp90 complexes in K562 cell extract; experiment: Nano-LC-MS/MS of PU-beads pull-downs; format: binding; details: protein identified in PU-beads pull-down of K562 cell extract, QSTAR-Elite QTof MS
Protocol: Protein cargo isolated from cell lysate with PU-beads or control-beads was subjected to proteomic analysis by nano liquid chromatography coupled to tandem mass spectrometry (nano LC-MS/MS). Initial protein identification was performed using the Mascot search engine, and was further evaluated using Scaffold Proteome Software (Tables 5a-d).
(§1) Lysates prepared as mentioned above were first pre-cleaned by incubation with control beads overnight at 4° C. […] Beads were washed with lysis buffer, proteins eluted by boiling in 2% SDS, separated on a denaturing gel and Coomassie stained according to manufacturer's procedure (Biorad). […] Analyses of the batch purified pools were done using a QSTAR-Elite hybrid quadrupole time-of-flight mass spectrometer (QTof MS) (AB/MDS Sciex), equipped with a nano spray ion source. Peptide mixtures (in 20 μL) are loaded onto a trapping guard column (0.3×5-mm PepMap C18 100 cartridge from LC Packings) using an Eksigent nano MDLC system (Eksigent Technologies, Inc) at a flow rate of 20 μL/min. […] Electrospray ionization (ESI) needle voltage was set at about 1800 V. The mass analyzer is operated in automatic, data-dependent MS/MS acquisition mode, with the threshold set to 10 counts per second of doubly or triply charged precursor ions selected for fragmentation scans. Survey scans of 0.25 sec are recorded from 400 to 1800 amu; up to 3 MS/MS scans are then collected sequentially for the selected precursor ions, recording from 100 to 1800 amu. The collision energy is automatically adjusted in accordance with the m/z value of the precursor ions selected for MS/MS. Selected precursor ions are excluded from repeated selection for 60 sec after the end of the corresponding fragmentation duty cycle. […] One missed tryptic cleavage site was allowed, precursor ion mass tolerance=0.4 Da fragment ion mass tolerance=0.4 Da, protein modifications were allowed for Met-oxide, Cys-acrylamide and N-terminal acetylation. MudPit scoring was typically applied with ‘require bold red’ activated, and using significance threshold score p<0.05. Unique peptide counts (or ‘spectral counts’) and percent sequence coverages for all identified proteins were exported to Scaffold Proteome Software (version 2_06_01, www.proteomesoftware.com) for further bioinformatic analysis (Table 5a). Using output from Mascot, Scaffold validates, organizes, and interprets mass spectrometry data, allowing more easily to manage large amounts of data, to compare samples, and to search for protein modifications.

[2] = test system: Hsp90 complexes in Mia-PaCa-2 cell extract; experiment: Nano-LC-MS/MS of PU-beads pull-downs; format: binding, human; details: protein identified in PU-beads pull-down of Mia-PaCa-2 cell extract; QSTAR-Elite QTof MS
Protocol: as §1

Molecule | Number of Assigned Spectra, K562 Prep 1 [1] | Number of Assigned Spectra, K562 Prep 2 [1] | Number of Assigned Spectra, Mia-Paca 2 [2]
NAT10 (protein, UniProt Q9H0A0 1-1025, looked up) RNA cytidine acetyltransferase: MHRKKVDNRIRILIENGVAERQRSLFVVVGDRGKDQVVILHHMLSKATVKARPSVLWCYKKELGFSSHRKKRMRQLQKKIKNGTLNIKQDDPFELFIAATNIRYCYYNETHKILGNTFGMCVLQDFEALTPNLLARTVETVEGGGLVVILLRTMNSLKQLYTVTMDVHSRYRTEAHQDVVGRFNERFILSLASCKKCLVIDDQLNILPISSHVATMEALPPQTPDESLGPSDLELRELKESLQDTQPVGVLVDCCKTLDQAKAVLKFIEGISEKTLRSTVALTAARGRGKSAALGLAIAGAVAFGYSNIFVTSPSPDNLHTLFEFVFKGFDALQYQEHLDYEIIQSLNPEFNKAVIRVNVFREHRQTIQYIHPADAVKLGQAELVVIDEAAAIPLPLVKSLLGPYLVFMASTINGYEGTGRSLSLKLIQQLRQQSAQSQVSTTAENKTTTTARLASARTLYEVSLQESIRYAPGDAVEKWLNDLLCLDCLNITRIVSGCPLPEACELYYVNRDTLFCYHKASEVFLQRLMALYVASHYKNSPNDLQMLSDAPAHHLFCLLPPVPPTQNALPEVLAVIQVCLEGEISRQSILNSLSRGKKASGDLIPWTVSEQFQDPDFGGLSGGRVVRIAVHPDYQGMGYGSRALQLLQMYYEGRFPCLEEKVLETPQEIHTVSSEAVSLLEEVITPRKDLPPLLLKLNERPAERLDYLGVSYGLTPRLLKFWKRAGFVPVYLRQTPNDLTGEHSCIMLKTLTDEDEADQGGWLAAFWKDFRRRFLALLSYQFSTFSPSLALNIIQNRNMGKPAQPALSREELEALFLPYDLKRLEMYSRNMVDYHLIMDMIPAISRIYFLNQLGDLALSAAQSALLLGIGLQHKSVDQLEKEIELPSGQLMGLFNRIIRKVVKLFNEVQEKAIEEQMVAAKDVVMEPTMKTLSDDLDEAAKEFQEKHKKEVGKLKSMDLSEYIIRGDDEEWNEVLNKAGPNASIISLKSDKKRKLEAKQEPKQSKKLKNRETKNKKDMKLKRKK | 8 | 3 | 1
AIP (protein, UniProt O00170 1-330, looked up) AH receptor-interacting …: MADIIARLREDGIQKRVIQEGRGELPDFQDGTKATFHYRTLHSDDEGTVLDDSRARGKPMELIIGKKFKLPVWETIVCTMREGEIAQFLCDIKHVVLYPLVAKSLRNIAVGKDPLEGQRHCCGVAQMREHSSLGHADLDALQQNPQPLIFHMEMLKVESPGTYQQDPWAMTDEEKAKAVPLIHQEGNRLYREGHVKEAAAKYYDAIACLKNLQMKEQPGSPEWIQLDQQITPLLLNYCQCKLVVEEYYEVLDHCSSILNKYDDNVKAYFKRGKAHAAVWNAQEAQADFAKVLELDPALAPVVSRELRALEARIRQKDEEDKARFRGIFSH | 10 | 0 | 0
HEATR6 (protein, UniProt Q6AI08 1-1181, looked up) HEAT repeat-containing …: MAAVQVVGSWPSVQPREAPREAIPERGNGFRLLSARLCALRPDDSSSARTEIHLLFDQLISENYSEGSGVAPEDVSALLVQACRLVPLNQNHLVSKVSQLIHHLLNRLQVIVDEQHLDFLLAYTISAIHQCSSWTHREILQALAALVYCNGSKCQKYLPELLGNTGLLMKLSDLAQSDPEVRRAAVHCMANLCLSVPGQPYLEEPYQNVCFQAFLTILQSPKSSDMDDITFCMLLQNALKGIQSLLNGGRMKLTQTDELGALLAVLKKFMFHGLPGLNIEMPTVLYPTPLPQYDGRTPIKPQQSESSASRPTLNKKKKSKVKPKKIQQGEEEEKESSGEIEAAPVTGTGRVNLHEGNTWCPSSLGVQSLPLDGSGAAEKDGVSSSFSSSSWKRVSSSESDFSDAEGGMQSKMRSYQAKVRQGALVCFLSTIKSIEKKVLYGYWSAFIPDTPELGSPQSVSLMTLTLKDPSPKTRACALQVLSAILEGSKQFLSVAEDTSDHRRAFTPFSVMIACSIRELHRCLLLALVAESSSQTVTQIIKCLANLVSNAPYDRLKLSLLTKVWNQIKPYIRHKDVNVRVSSLTLLGAIVSTHAPLPEVQLLLQQPCSSGLGNSNSATPHLSPPDWWKKAPAGPSLEETSVSSPKGSSEPCWLIRLCISIVVLPKEDSCSGSDAGSAAGSTYEPSPMRLEALQVLTLLARGYFSMTQAYLMELGEVICKCMGEADPSIQLHGAKLLEELGTGLIQQYKPDSTAAPDQRAPVFLVVMFWTMMLNGPLPRALQNSEHPTLQASACDALSSILPEAFSNLPNDRQMLCITVLLGLNDSKNRLVKAATSRALGVYVLFPCLRQDVIFVADAANAILMSLEDKSLNVRAKAAWSLGNLTDTLIVNMETPDPSFQEEFSGLLLLKMLRSAIEASKDKDKVKSNAVRALGNLLHFLQPSHIEKPTFAEIIEESIQALISTVLTEAAMKVRWNACYAMGNVFKNPALPLGTAPWTSQAYNALTSVVTSCKNFKVRIRSAAALSVPGKREQYGSVDQYARIWNALVTALQKSEDTIDFLEFKYCVSLRTQICQALIHLLSLASASDLPCMKETLELSGNMVQSYILQFLKSGAEGDDTGAPHSPQERDQMVRMALKHMGSIQAPTGDTARRAIMGFLEEILAVCFDSSGSQGALPGLTNQ | 2 | 1 | 0
TRIPI3 (protein, UniProt Q15645 1-432, looked up) Pachytene checkpoint protein …: MDEAVGDLKQALPCVAESPTVHVEVHQRGSSTAKKEDINLSVRKLLNRHNIVFGDYTWTEFDEPFLTRNVQSVSIIDTELKVKDSQPIDLSACTVALHIFQLNEDGPSSENLEEETENIIAANHWVLPAAEFHGLWDSLVYDVEVKSHLLDYVMTTLLFSDKNVNSNLITWNRVVLLHGPPGTGKTSLCKALAQKLTIRLSSRYRYGQLIEINSHSLFSKWFSESGKLVTKMFQKIQDLIDDKDALVFVLIDEVESLTAARNACRAGTEPSDAIRVVNAVLTQIDQIKRHSNVVILTTSNITEKIDVAFVDRADIKQYIGPPSAAAIFKIYLSCLEELMKCQIIYPRQQLLTLRELEMIGFIENNVSKLSLLLNDISRKSEGLSGRVLRKLPFLAHALYVQAPTVTIEGFLQALSLAVDKQFEERKKLAAYI | 3 | 3 | 8
FAM120A (protein, UniProt Q9NZB2 1-1118, looked up) Constitutive coactivator of …: MGVQGFQDYIEKHCPSAVVPVELQKLARGSLVGGGRQRPPQTPLRLLVDADNCLHRLYGGFYTDWVSGGQWNHMLGYLAALAKACFGGNIELFVFFNGALEKARLHEWVKRQGNERQTAQQIVSHVQNKGTPPPKVWFLPPVCMAHCIRLALIRFHVKVAQSIEDHHQEVIGFCRENGFHGLVAYDSDYALCNIPYYFSAHALKLSRNGKSLTTSQYLMHEVAKQLDLNPNRFPIFAALLGNHILPDEDLASFHWSLLGPEHPLASLKVRAHQLVLPPCDVVIKAVADYVRNIQDTSDLDAIAKDVFQHSQSRTDDKVIRFKRAIGYYSATSKPMSFHPPHYLAARPGPFGMPGMVPPHVPPQMLNIPQTSLQAKPVAPQVPSPGGAPGQGPYPYSLSEPAPLTLDTSGKNLTEQNSYSNIPHEGKHTPLYERSSPINPAQSGSPNHVDSAYFPGSSTSSSSDNDEGSGGATNHISGNKIGWEKTGSHSEPQARGDPGDQTKAEGSSTASSGSQLAEGKGSQMGTVQPIPCLLSMPTRNHMDITTPPLPPVAPEVLRVAEHRHKKGLMYPYIFHVLTKGEIKIAVSIEDEANKDLPPAALLYRPVRQYVYGVLFSLAESRKKTERLAFRKNRLPPEFSPVIIKEWAAYKGKSPQTPELVEALAFREWTCPNLKRLWLGKAVEDKNRRMRAFLACMRSDTPAMLNPANVPTHLMVLCCVLRYMVQWPGARILRRQELDAFLAQALSPKLYEPDQLQELKIENLDPRGIQLSALFMSGVDMALFANDACGQPIPWEHCCPWMYFDGKLFQSKLLKASREKTPLIDLCDGQADQAAKVEKMRQSVLEGLSFSRQSHTLPFPPPPALPFYPASAYPRHFGPVPPSQGRGRGFAGVCGFGGPYGETVATGPYRAFRVAAASGHCGAFSGSDSSRTSKSQGGVQPIPSQGGKLEIAGTVVGHWAGSRRGRGGRGPFPLQVVSVGGPARGRPRGVISTPVIRTFGRGGRYYGRGYKNQAAIQGRPPYAASAEEVAKELKSKSGESKSSAMSSDGSLAENGVMAEEKPAPQMNGSTGDARAPSHSESALNNDSKTCNTNPHLNALSTDSACRREAALEAAVLNKEE | 1 | 1 | 12
CTTN (protein, UniProt Q14247 1-550, looked up) Src substrate cortactin: MWKASAGHAVSIAQDDAGADDWETDPDFVNDVSEKEQRWGAKTVQGSGHQEHINIHKLRENVFQEHQTLKEKELETGPKASHGYGGKFGVEQDRMDKSAVGHEYQSKLSKHCSQVDSVRGFGGKFGVQMDRVDQSAVGFEYQGKTEKHASQKDYSSGFGGKYGVQADRVDKSAVGFDYQGKTEKHESQRDYSKGFGGKYGIDKDKVDKSAVGFEYQGKTEKHESQKDYVKGFGGKFGVQTDRQDKCALGWDHQEKLQLHESQKDYKTGFGGKFGVQSERQDSAAVGFDYKEKLAKHESQQDYSKGFGGKYGVQKDRMDKNASTFEDVTQVSSAYQKTVPVEAVTSKTSNIRANFENLAKEKEQEDRRKAEAERAQRMAKERQEQEEARRKLEEQARAKTQTPPVSPAPQPTEERLPSSPVYEDAASFKAELSYRGPVSGTEPEPVYSMEAADYREASSQQGLAYATEAVYESAEAPGHYPAEDSTYDEYENDLGITAVALYDYQAAGDDEISFDPDDIITNIEMIDDGWWRGVCKGRYGLFPANYVELRQ | 6 | 6 | 2
